Reference: patent publication US12630600B2 (MEDIMMUNE LIMITED, priority 2022, dated 2026)
Starred links: 1 amine or outer side, 2 acyl side, 3 side chain; linkers in the order of their positions; H or OH if unused. Non-standard residues stand in square brackets, D forms with d. Groups on a side chain read outwards from the residue. No end group written: not given here. *: point of attachment. C18 diacid = O=C(O)CCCCCCCCCCCCCCCCC(=O)*; γGlu = O=C(O)[C@H](CCC(=O)[*:2])N[*:1]; αMeF = C[C@](N)(Cc1ccccc1)C(=O)O; AEEA = NCCOCCOCC(=O)O; Aib = CC(C)(N)C(=O)O

B1: Peptide 136 (peptide)
peptide: H[Aib]QGTFTSDVSK[αMeF]LDSK([γGlu-γGlu-AEEA-AEEA-γGlu-γGlu-C18 diacid])RARDFVRWLLE[Aib]G-OH
modifications: N-terminus assumed
SMILES: CC(C)C[C@H](NC(=O)[C@H](Cc1c[nH]c2ccccc12)NC(=O)[C@H](CCCNC(=N)N)NC(=O)[C@@H](NC(=O)[C@H](Cc1ccccc1)NC(=O)[C@H](CC(=O)O)NC(=O)[C@H](CCCNC(=N)N)NC(=O)[C@H](C)NC(=O)[C@H](CCCNC(=N)N)NC(=O)[C@H](CCCCNC(=O)CC[C@H](NC(=O)CC[C@H](NC(=O)COCCOCCNC(=O)COCCOCCNC(=O)CC[C@H](NC(=O)CC[C@H](NC(=O)CCCCCCCCCCCCCCCCC(=O)O)C(=O)O)C(=O)O)C(=O)O)C(=O)O)NC(=O)[C@H](CO)NC(=O)[C@H](CC(=O)O)NC(=O)[C@H](CC(C)C)NC(=O)[C@](C)(Cc1ccccc1)NC(=O)[C@H](CCCCN)NC(=O)[C@H](CO)NC(=O)[C@@H](NC(=O)[C@H](CC(=O)O)NC(=O)[C@H](CO)NC(=O)[C@@H](NC(=O)[C@H](Cc1ccccc1)NC(=O)[C@@H](NC(=O)CNC(=O)[C@H](CCC(N)=O)NC(=O)C(C)(C)NC(=O)[C@@H](N)Cc1c[nH]cn1)[C@@H](C)O)[C@@H](C)O)C(C)C)C(C)C)C(=O)N[C@@H](CC(C)C)C(=O)N[C@@H](CCC(=O)O)C(=O)NC(C)(C)C(=O)NCC(=O)O
B2: Peptide 137 (peptide)
peptide: H[Aib]QGTFTSDVSK[αMeF]LDSK([γGlu-γGlu-AEEA-AEEA-γGlu-γGlu-C18 diacid])RAQDFVRWLLEG[Aib]-OH
modifications: N-terminus assumed
SMILES: CC(C)C[C@H](NC(=O)[C@H](CC(C)C)NC(=O)[C@H](Cc1c[nH]c2ccccc12)NC(=O)[C@H](CCCNC(=N)N)NC(=O)[C@@H](NC(=O)[C@H](Cc1ccccc1)NC(=O)[C@H](CC(=O)O)NC(=O)[C@H](CCC(N)=O)NC(=O)[C@H](C)NC(=O)[C@H](CCCNC(=N)N)NC(=O)[C@H](CCCCNC(=O)CC[C@H](NC(=O)CC[C@H](NC(=O)COCCOCCNC(=O)COCCOCCNC(=O)CC[C@H](NC(=O)CC[C@H](NC(=O)CCCCCCCCCCCCCCCCC(=O)O)C(=O)O)C(=O)O)C(=O)O)C(=O)O)NC(=O)[C@H](CO)NC(=O)[C@H](CC(=O)O)NC(=O)[C@H](CC(C)C)NC(=O)[C@](C)(Cc1ccccc1)NC(=O)[C@H](CCCCN)NC(=O)[C@H](CO)NC(=O)[C@@H](NC(=O)[C@H](CC(=O)O)NC(=O)[C@H](CO)NC(=O)[C@@H](NC(=O)[C@H](Cc1ccccc1)NC(=O)[C@@H](NC(=O)CNC(=O)[C@H](CCC(N)=O)NC(=O)C(C)(C)NC(=O)[C@@H](N)Cc1c[nH]cn1)[C@@H](C)O)[C@@H](C)O)C(C)C)C(C)C)C(=O)N[C@@H](CCC(=O)O)C(=O)NCC(=O)NC(C)(C)C(=O)O

Legend:
[1] = molecular target: human GLP-1 receptor (human, UniProt P43220); assay: cell-based or functional assay
[2] = molecular target: human glucagon receptor (human, UniProt P47871); assay: cell-based or functional assay

Row | Binder | cAMP production EC50 [1] | cAMP production EC50 [2]
1 | B1 | 0.0452 nM | 0.509 nM
2 | B2 | 0.143 nM | 0.268 nM
